Measured values as given in the DeepSol protein solubility set.

Assay: soluble on expression in E. coli; label from the status in PepcDB or PDB records

Sequence | soluble on expression in E. coli
MAHKGTESKEQIWPYKITIGICAMNRKATSKPMRAIMKKIIDFYGQWVDSFIFPEQVIINEPVENWPLCHCLVSFHSTEFPLEKAIAYVKLRNPYVINNLDRQYDLLDRRTVFKILSDNGIEHPRHGYVIRGRPNEPDTELVEHPDHIEVNGEVFNKPFVEKPISSEDHNVYIYYPSSVGGGSQRLFRKINNRSSWYSPKSEVRKEGSYIYEEFIPADGTDVKVYAVGPFYAHAEARKAPGLDGKVERDSDGKEVRYPVILSNKEKQIAKKIVLAFGQTVCGFDLLRANGKSYVCDVNGFSFVKTSTKYYEDTAKILGNQIVRHYAKSKNWRVPSDMPQPPILDLGLGDDPPMITTPSGKLAELRCVVAVIRHGDRTPKQKMKLIVTDQRFFALFEKYDGYKKHEIKMKKPNQLMEVLELARALVIEKQRDRHQILEKLREGTGEEEIHKSEHDLEVCEEEMKKWEQMRTVLEMYGHFSGINRKVQMKYLKERETKTSDEELRREGPALLLILKWGGELTTAGNMQAEALGRLFRTLYPGIRRTDGKSSPEDTQGLGFLRLHSTYRHDLKIYASDEGRVQTTAAAFAKGLLALEGELTPILMQMVKSANTDGLLDDDCQARLYQTELKRYLHKALQADRDFTPQDYLELNPNGLRAITAAMEFIKNPRKMCHEIAGYVEKMCGVIVEYSQTRPTGSTLYLQESMDLAQRRWNKELREFRRKNKHGEVEFDISKIPDIYDNIKYDMEHNPDLCINNEVEFERMYVCVKNMADIVVPQEYGIKTENKMVIAQRVCTPLLRKIRNDLHRCLENKESEETQTRLDPRASQGIATPFRHVRTRLYFTSESHIHTLMNLIRYGNLCSVDDKKWQRAMNFLSGVTEFNYMTQVVLMVYEDSRKENDEADTGPRFHIEILFSPGLYPCFLTEKERIYETRFNLSTNPKPATSSRSSGRESRDTNDSASSSTEGRRPSIEKVVTVVTPTQLSTPSVTNDDLSISSNAESTAAESTGLVNTTTKTHNDSEDDLNDVESVNLVALDELNNTTKASQRGSFHVTEPIQIDEKTRRYFPYRFKHHTAQLLTGMSGGGVHMQNRLISTDVLTGKFGDHDNKKNSRKDFGAGTAVLSTAVIARSSSAPRLMTYESEDFSVGEIKRFWPPLRSLETLHDSINLSQFDGFLERLIKGALTPLPSPPKTPLPSALSCDAINKTPTQDEVEKVIGKLAPTSSTD | not soluble
MGSDKIHHHHHHMAPRGNQMLGNAHFRKHWHKRIKTWFDQPARKLRRRQNRQAKAVEIAPRPVAGLLRSVVRCPQKRYNTKTRLGRGFSLQELKAAGISQAQARTIGIAVDVRRTNKTAEGLKANADRLKEYKAKLILFPKKASAPKKGDSSAEELKVAAQLRGDVLPLSHTITFDEPRQVTDAERKVEIFRLLRKERADKKYRGKREKRAREAAEENK | not soluble
MHHHHHHSSGVDLGTENLYFQSMPFPEGKVLDDMEGNQWVLGKKIGSGGFGLIYLAFPTNKPEKDARHVVKVEYQENGPLFSELKFYQRVAKKDCIKKWIERKQLDYLGIPLFYGSGLTEFKGRSYRFMVMERLGIDLQKISGQNGTFKKSTVLQLGIRMLDVLEYIHENEYVHGDIKAANLLLGYKNPDQVYLADYGLSYRYCPNGNHKQYQENPRKGHNGTIEFTSLDAHKGVALSRRSDVEILGYCMLRWLCGKLPWEQNLKDPVAVQTAKTNLLDELPQSVLKWAPSGSSCCEIAQFLVCAHSLAYDEKPNYQALKKILNPHGIPLGPLDFSTKGQSINVH | soluble
MGSDKIHHHHHHMHRFKYDHPLDDGVRRRVMEELAALERRHHVRVLYACESGSRAWGFASPDSDYDVRFLYVHRPQWYLQVEPQRDVIELPLDDELDISGWELRKALQLLNRSNPTMFEWLQSPLVYRADEKAAAALRELMADFHSLGRCRWHYLSMARKNHRVHLQGETVRLKKYLYVLRPLLAVRWLDAGKGLPPMRFADLAAATVEDDGLAAEINHLLAIKMAAGEAQLGGRLPKLDAFIASMLAEPVPPLPGRHDGDVRRLDRLLQEWVMGSVREDGSAACEI | not soluble
MIYPYNSTISLGTVSLNVTDLAKMTTFYTSIIGLQVLSQDTTSRQLTTDGKTVILELRQTPLPGDKAYGLYHTAFLVPDRHSLGLVLNHFLTRSISLEGAADHGHSEAIYLSDPEGNGIEIYHDKAVEHWDIRDNGQIIGVTEPTDTKSILEQLTDIPKHFLLAQDTRIRHVHLSVKNALASSLLYQKVFDLGDKMTIPSASWIASGNYYHHLAFNHWSAPYLKKHQEGAPGLAFLTIHIETPLLFSATLKKARLHGLAILQEDSSSFTTEDEEGIRVNVILGQD | not soluble
